Experimental data: patent US20130142802A1

Columns and labels:
[1] = molecular target: native FGFR2-IIIc on rat prostate cancer cell line AT3B-1 (rat) (UniProt F1LNW0); assay: flow cytometry on AT3B-1 cells; no-primary control 11%
[2] = molecular target: native FGFR2-IIIc on rat prostate cancer cell line AT3B-1 (rat) (UniProt F1LNW0); assay: flow cytometry on rat prostate cancer cell line AT3B-1; marker M1 9-7844, 1840 of 15000 events; the panel without primary antibody also prints 12.27

% positive staining of the cell population [1]: 12%
%Gated (marker M1) [2]: 12.3%
Substance: human IgG (negative control) (antibody)
